From paper PMC2935283, “Molecular recognition between Escherichia coli enolase and ribonuclease E” (Acta Crystallographica Section D: Biological Crystallography, 2010)

Target: the molecule itself
Assay: native MS; enolase mixed with the microdomain in a 1:1.5 molar ratio, room temperature, 20 min; nanoflow ESI, tandem nondissociating QTOF-MS/MS

B1: Escherichia coli enolase (enzyme, E. coli)
chain: MSKIVKIIGREIIDSRGNPTVEAEVHLEGGFVGMAAAPSGASTGSREALELRDGDKSRFLGKGVTKAVAAVNGPIAQALIGKDAKDQAGIDKIMIDLDGTENKSKFGANAILAVSLANAKAAAAAKGMPLYEHIAELNGTPGKYSMPVPMMNIINGGEHADNNVDIQEFMIQPVGAKTVKEAIRMGSEVFHHLAKVLKAKGMNTAVGDEGGYAPNLGSNAEALAVIAEAVKAAGYELGKDITLAMDCAASEFYKDGKYVLAGEGNKAFTSEEFTHFLEELTKQYPIVSIEDGLDESDWDGFAYQTKVLGDKIQLVGDDLFVTNTKILKEGIEKGIANSILIKFNQIGSLTETLAAIKMAKDAGYTAVISHRSGETEDATIADLAVGTAAGQIKTGSMSRSDRVAKYNQLIRIEEALGEKAPYNGRKEIKGQA
notes: enolase (EC 4.2.1.11), E. coli; overexpressed from pET11a; Purified as described in Kuhnel & Luisi, 2001; Homodimer in the crystal and by nondissociating mass spectrometry; also called enolase dimer; dimeric enolase; source: E. coli BL21 (DE3), pET11a vector, purified
  stoichiometry N: 2
